# In patent US20240002531A1 (ONO PHARMACEUTICAL, published 2024):
# Read-outs that look alike come from different tables or passages of the source.
# T1: G603A peptide (HER2 603-622 with G603A) (human)
# T1 peptide: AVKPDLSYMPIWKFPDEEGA
# T2: F616A peptide (HER2 603-622 with F616A) (human)
# T2 peptide: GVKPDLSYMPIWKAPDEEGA
# T3: K605A peptide (HER2 603-622 with K605A) (human)
# T3 peptide: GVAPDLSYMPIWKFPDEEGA
# T4: HER2_604-622C peptide (NH2-VKPDLSYMPIWKFPDEEGAC-COOH) (human)
# T4 construct: KLH was added for immunisation, the peptide itself was coated in the screening ELISA
# T4 peptide: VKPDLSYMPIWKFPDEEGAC
# T5: S609A peptide (HER2 603-622 with S609A) (human)
# T5 peptide: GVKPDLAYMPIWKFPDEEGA
# T6: P617A peptide (HER2 603-622 with P617A) (human)
# T6 peptide: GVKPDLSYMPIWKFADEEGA
# T7: D607A peptide (HER2 603-622 with D607A) (human)
# T7 peptide: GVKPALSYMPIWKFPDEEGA
# T8: I613A peptide (HER2 603-622 with I613A) (human)
# T8 construct: also called 1613A
# T8 peptide: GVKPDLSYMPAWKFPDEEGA
# T9: V604A peptide (HER2 603-622 with V604A) (human)
# T9 peptide: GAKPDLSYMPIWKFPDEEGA
# T10: P606A peptide (HER2 603-622 with P606A) (human)
# T10 peptide: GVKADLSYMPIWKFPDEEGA
# T11: W614A peptide (HER2 603-622 with W614A) (human)
# T11 peptide: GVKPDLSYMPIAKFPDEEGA
# T12: M611A peptide (HER2 603-622 with M611A) (human)
# T12 peptide: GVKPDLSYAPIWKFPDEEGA
# T13: E620A peptide (HER2 603-622 with E620A) (human)
# T13 peptide: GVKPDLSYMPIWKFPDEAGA
# T14: P612A peptide (HER2 603-622 with P612A) (human)
# T14 peptide: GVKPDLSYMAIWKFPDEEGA
# T15: D618A peptide (HER2 603-622 with D618A) (human)
# T15 peptide: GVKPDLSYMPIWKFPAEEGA
# T16: G621A peptide (HER2 603-622 with G621A) (human)
# T16 peptide: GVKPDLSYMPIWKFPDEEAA
# T17: HER2 peptide p603-622 (amino acids 603 to 622 of human HER2) (human)
# T17 construct: Synthetic peptide; also called wild-type HER2 peptide
# T17 peptide: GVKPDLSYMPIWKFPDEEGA
# T18: K615A peptide (HER2 603-622 with K615A) (human)
# T18 peptide: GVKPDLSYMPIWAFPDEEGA
# T19: E619A peptide (HER2 603-622 with E619A) (human)
# T19 peptide: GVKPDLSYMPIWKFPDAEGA
# T20: L608A peptide (HER2 603-622 with L608A) (human)
# T20 peptide: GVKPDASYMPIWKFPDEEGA
# T21: Y610A peptide (HER2 603-622 with Y610A) (human)
# T21 peptide: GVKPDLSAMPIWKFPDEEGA
# B1: H2Mab-283 antibody (antibody, mouse IgG1, kappa, V domains shown)
# VH: EVQLVESGGGLVQPGGSLKLSCAASGFTFSSYGMSWVRQTPDKRLELVATINSNGGSTFYPDSVKGRFTISRDNAKNTLYLHMSSLKSEDTAIYYCVSPGSWFPYWGRGTLVTVSA
# VL: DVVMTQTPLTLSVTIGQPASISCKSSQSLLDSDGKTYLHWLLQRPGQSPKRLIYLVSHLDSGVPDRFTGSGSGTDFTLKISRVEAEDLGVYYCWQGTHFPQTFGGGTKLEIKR
# B2: H2Mab-284 antibody (antibody, mouse IgG1, kappa, V domains shown)
# VH: QVTLKESGPGILQPSQTLSLTCSFSGFSLSTSGVGVGWIRQPSGKGLEWLAHIWWDDDKNYNPALKSRLTISKDTSTNQGFLKIASVDTADTATYFCARIEGQKGFAYWGQGTLVTVSA
# VL: DIVMSQSPSSLAVSVGEKVTMSCKSSQSLLYSRNQKNYLAWYQQKPGQSPKLLIYWASTRESGVPDRFTGSGSGTDFTLTISSVKAEDLAVYYCQQYYSSPYTFGGGTKLEIKR
# B3: H2Mab-285 antibody (antibody, mouse IgG3, V domains shown)
# VH: EVQLVESGGGLVQPGGSLKLSCAASGFTFSNYGIFWVRQTPDKRLELVATVKSNGGSTYYPDSVKGRFTISRDNAKKTLYLQMSSLKSEDTAMYYCAREGGDYWGQGTSVTVSS
# VL: DIVMTQSHKFMSTSVGDRVSITCKASQDVGTAVAWYQQKPGQSPKLLIYWTSTRHTGVPDRFTGSGSGTDFTLTIRNVQSEDLADYFCQQYNRNPLTFGAGTRLELKR
# B4: H2Mab-289 antibody (antibody, mouse IgG1, kappa, V domains shown)
# VH: EVQLQQSGPELVKPGASVKISCKASGYSFTGFFMNWVMQSHGKSLEWIGRINPYNGDTFYNQKFNDKATLTVDKSSRTAHMDLRNLASEDSAVYYCATISGNYRGYAMDNWGQGTSVTVSS
# VL: DVLMTQTPLSLPVSLGDQASISCRSSQTILHTNGNTYLEWYLQKPGQSPKLLIYKVSNRFSGVPDRFSGSGSGTDFTLKISRVEAEDLGVYYCFQGSRVPPTFGGGTKLEIKR
# Experiments:
# Assay in all cases: peptide ELISA, OD 655 nm
# [1] = target: T1, G603A peptide (HER2 603-622 with G603A)
# [2] = target: T2, F616A peptide (HER2 603-622 with F616A)
# [3] = target: T3, K605A peptide (HER2 603-622 with K605A)
# [4] = target: T4, HER2_604-622C peptide …
# [5] = target: T5, S609A peptide (HER2 603-622 with S609A)
# [6] = target: T6, P617A peptide (HER2 603-622 with P617A)
# [7] = target: T7, D607A peptide (HER2 603-622 with D607A)
# [8] = target: T8, I613A peptide (HER2 603-622 with I613A)
# [9] = target: T9, V604A peptide (HER2 603-622 with V604A)
# [10] = target: T10, P606A peptide (HER2 603-622 with P606A)
# [11] = target: T11, W614A peptide (HER2 603-622 with W614A)
# [12] = target: T12, M611A peptide (HER2 603-622 with M611A)
# [13] = target: T13, E620A peptide (HER2 603-622 with E620A)
# [14] = target: T14, P612A peptide (HER2 603-622 with P612A)
# [15] = target: T15, D618A peptide (HER2 603-622 with D618A)
# [16] = target: T16, G621A peptide (HER2 603-622 with G621A)
# [17] = target: T17, HER2 peptide p603-622 (amino acids 603 …)
# [18] = target: T18, K615A peptide (HER2 603-622 with K615A)
# [19] = target: T19, E619A peptide (HER2 603-622 with E619A)
# [20] = target: T20, L608A peptide (HER2 603-622 with L608A)
# [21] = target: T21, Y610A peptide (HER2 603-622 with Y610A)
# [22] = target: T1, G603A peptide (HER2 603-622 with G603A)
# [23] = target: T2, F616A peptide (HER2 603-622 with F616A)
# [24] = target: T3, K605A peptide (HER2 603-622 with K605A)
# [25] = target: T4, HER2_604-622C peptide …
# [26] = target: T5, S609A peptide (HER2 603-622 with S609A)
# [27] = target: T6, P617A peptide (HER2 603-622 with P617A)
# [28] = target: T7, D607A peptide (HER2 603-622 with D607A)
# [29] = target: T8, I613A peptide (HER2 603-622 with I613A)
# [30] = target: T9, V604A peptide (HER2 603-622 with V604A)
# [31] = target: T10, P606A peptide (HER2 603-622 with P606A)
# [32] = target: T11, W614A peptide (HER2 603-622 with W614A)
# [33] = target: T12, M611A peptide (HER2 603-622 with M611A)
# [34] = target: T13, E620A peptide (HER2 603-622 with E620A)
# [35] = target: T14, P612A peptide (HER2 603-622 with P612A)
# [36] = target: T15, D618A peptide (HER2 603-622 with D618A)
# [37] = target: T16, G621A peptide (HER2 603-622 with G621A)
# [38] = target: T17, HER2 peptide p603-622 (amino acids 603 …)
# [39] = target: T18, K615A peptide (HER2 603-622 with K615A)
# [40] = target: T19, E619A peptide (HER2 603-622 with E619A)
# [41] = target: T20, L608A peptide (HER2 603-622 with L608A)
# [42] = target: T21, Y610A peptide (HER2 603-622 with Y610A)
binder,measurement,setting,value
B1,binding result,[1],binds
same,binding result,[2],binds
same,binding result,[3],binds
same,binding result,[4],binds
same,binding result,[5],binds
same,binding result,[6],binds
same,binding result,[7],binds
same,binding result,[8],binds
same,binding result,[9],binds
same,binding result,[10],binds
same,binding result,[11],no binding (tested: 10 ug/ml)
same,binding result,[12],binds
same,binding result,[13],binds
same,binding result,[14],binds
same,binding result,[15],binds
same,binding result,[16],binds
same,binding result,[17],binds
same,binding result,[18],binds
same,binding result,[19],binds
same,binding result,[20],binds
same,binding result,[21],binds
B2,binding result,[1],binds
same,binding result,[2],no binding (tested: 10 ug/ml)
same,binding result,[3],binds
same,binding result,[4],binds
same,binding result,[5],binds
same,binding result,[6],binds
same,binding result,[7],binds
same,binding result,[8],binds
same,binding result,[9],binds
same,binding result,[10],binds
same,binding result,[11],binds
same,binding result,[12],binds
same,binding result,[13],binds
same,binding result,[14],binds
same,binding result,[15],binds
same,binding result,[16],binds
same,binding result,[17],binds
same,binding result,[18],no binding (tested: 10 ug/ml)
same,binding result,[19],binds
same,binding result,[20],binds
same,binding result,[21],binds
B3,binding result,[1],binds
same,binding result,[2],binds
same,binding result,[3],binds
same,binding result,[4],binds
same,binding result,[5],binds
same,binding result,[6],binds
same,binding result,[7],binds
same,binding result,[8],binds
same,binding result,[9],binds
same,binding result,[10],binds
same,binding result,[11],binds
same,binding result,[12],binds
same,binding result,[13],binds
same,binding result,[14],binds
same,binding result,[15],binds
same,binding result,[16],binds
same,binding result,[17],binds
same,binding result,[18],binds
same,binding result,[19],binds
same,binding result,[20],binds
same,binding result,[21],binds
B4,binding result,[22],binds
same,binding result,[23],binds
same,binding result,[24],binds
same,binding result,[25],binds
same,binding result,[26],binds
same,binding result,[27],binds
same,binding result,[28],binds
same,binding result,[29],binds
same,binding result,[30],binds
same,binding result,[31],binds
same,binding result,[32],binds
same,binding result,[33],binds
same,binding result,[34],binds
same,binding result,[35],binds
same,binding result,[36],binds
same,binding result,[37],binds
same,binding result,[38],binds
same,binding result,[39],binds
same,binding result,[40],binds
same,binding result,[41],binds
same,binding result,[42],binds
